T1: TOCA1 HR1-SH3 (residues 330–545) (Xenopus tropicalis, UniProt Q6GUF4 330-545)
T1 construct: Xenopus tropicalis TOCA1, C-terminally extended HR1 construct, residues 330-545, in pMAT10-P; also called HR1-SH3 protein; TOCA1 330–545; source: E. coli, purified (Ni-NTA, 3C protease cleavage, gel filtration); not shown: His, N-terminal, cleaved; MBP, N-terminal, cleaved
T1 sequence (looked up): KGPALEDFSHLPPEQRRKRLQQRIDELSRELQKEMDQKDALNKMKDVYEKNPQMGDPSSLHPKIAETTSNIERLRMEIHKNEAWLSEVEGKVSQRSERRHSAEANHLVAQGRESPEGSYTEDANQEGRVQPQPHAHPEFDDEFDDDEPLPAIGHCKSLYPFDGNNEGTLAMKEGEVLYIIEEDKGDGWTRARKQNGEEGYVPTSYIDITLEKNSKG

B1: CIP4 HR1 domain (residues 388–481) (domain or fragment, human, UniProt Q15642 388-481, looked up)
chain: TEDFSHLPPEQQRKRLQQQLEERSRELQKEVDQREALKKMKDVYEKTPQMGDPASLEPQIAETLSNIERLKLEVQKYEAWLAEAESRVLSNRGD
notes: also called HR1^CIP4; source: E. coli BL21, purified (glutathione-agarose, 3C protease cleavage, gel filtration); not shown: GST, N-terminal, cleaved
B2: TOCA1 HR1 domain (residues 330–426) with C-terminal His6 tag (domain or fragment, Xenopus tropicalis, UniProt Q6GUF4 330-426, looked up)
chain: KGPALEDFSHLPPEQRRKRLQQRIDELSRELQKEMDQKDALNKMKDVYEKNPQMGDPSSLHPKIAETTSNIERLRMEIHKNEAWLSEVEGKVSQRSE
notes: Xenopus tropicalis TOCA1 HR1 domain, residues 330-426, from cDNA NM_001005148, in pGEX-HisP; also called HR1-His6; C-terminally His-tagged TOCA1 HR1 domain construct; source: E. coli BL21, purified (glutathione-agarose, 3C protease cleavage, gel filtration); not shown: GST, N-terminal, cleaved; His6, C-terminal, kept
B3: TOCA1 HR1 domain (residues 330–426), untagged (domain or fragment, Xenopus tropicalis, UniProt Q6GUF4 330-426, looked up)
chain: B2 chain
notes: Xenopus tropicalis TOCA1 (transducer of Cdc42-dependent actin assembly protein 1) HR1 domain, residues 330-426, from cDNA NM_001005148, in pGEX-6P-1; 15N- or 13C/15N-labelled in some NMR experiments; also called HR1^TOCA1; TOCA HR1 domain; source: E. coli BL21, purified (glutathione-agarose, 3C protease cleavage, gel filtration); not shown: GST, N-terminal, cleaved
B4: N-WASP G protein-binding domain (GBD) (residues 197–255) (domain or fragment, Xenopus tropicalis, UniProt Q6NX29 197-255, looked up)
chain: KKKLTKADIGTPSNFQHIGHVGWDPNTGFDVNNLDPELKKLFDLCGISEAQLKDKETSK
notes: also called N-WASP GBD; N-WASP CRIB domain; source: E. coli BL21-CodonPlus-RIL, purified (glutathione-agarose, 3C protease cleavage, gel filtration); not shown: GST, N-terminal, cleaved
B5: FBP17 HR1 domain (residues 385–486) (domain or fragment, Xenopus laevis, UniProt Q6GNV5 385-486, looked up)
chain: LKRGGSTPEDFSNLPPEQRRKKLQQKVDELNKDIQKEIDQRDALTKMRDVYTKNPQMGDAASVGQKLVEIGNNIEKLRVEVQKFEGWLAEVEGRLSARNDSS
notes: Xenopus laevis FBP17 HR1 domain, residues 385-486, from IMAGE clone 5514481, in pGEX-6P-1; also called HR1^FBP17; source: E. coli BL21, purified (glutathione-agarose, 3C protease cleavage, gel filtration); not shown: GST, N-terminal, cleaved
B6: Cdc42Δ7Q61L (domain or fragment)
chain: not shown
notes: Human Cdc42 with seven residues deleted from the C terminus and the mutation Q61L; cloned into pGEX-2T; Loaded with [3H]GTP for SPA and with GMPPNP for NMR; 15N- or 15N/13C-labelled in some NMR experiments; also called truncated Cdc42; Cdc42Δ7Q61L·[3H]GTP; source: E. coli BL21, purified (glutathione-agarose, thrombin cleavage, gel filtration)

Assays:
Conditions in all cases: both partners purified
[1] = biological target: T2, full-length Cdc42Q61L (human, UniProt P60953 1-191, Q61L); assay: scintillation proximity assay; competition; free effector domain titrated into 30 nM Cdc42·[3H]GTP and 30 nM GST-ACK (in Fig. 7B GST-ACK or GST-WASP GBD) immobilised on a fluoromicrosphere; Kd from competition binding isotherms
T2 construct: Human Cdc42, full length, Q61L; cloned into pGEX-6P-1; confirmed as full-length by mass spectrometry; Loaded with [3H]GTP for SPA; also called Cdc42FLQ61L; full-length [3H]GTP·Cdc42; source: E. coli BL21, purified (glutathione-agarose, 3C protease cleavage, gel filtration)
T2 sequence (P60953 whole entry Q61L, the tested form may be a part): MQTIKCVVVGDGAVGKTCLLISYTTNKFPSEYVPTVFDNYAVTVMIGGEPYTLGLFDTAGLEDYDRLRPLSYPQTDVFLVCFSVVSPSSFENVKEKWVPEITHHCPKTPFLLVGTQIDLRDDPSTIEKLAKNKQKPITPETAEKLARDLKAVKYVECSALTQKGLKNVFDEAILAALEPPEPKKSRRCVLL

[2] = biological target: B6; assay: scintillation proximity assay; direct binding; 30 nM GST-PAK, GST-ACK or His-tagged TOCA1 construct attached to a fluoromicrosphere via an anti-GST or anti-His antibody; Cdc42·[3H]GTP at increasing concentrations; apparent Kd from a direct binding isotherm
[3] = biological target: B6; assay: scintillation proximity assay; competition; free effector domain titrated into 30 nM Cdc42·[3H]GTP and 30 nM GST-ACK (in Fig. 7B GST-ACK or GST-WASP GBD) immobilised on a fluoromicrosphere; Kd from competition binding isotherms
[4] = biological target: T1, TOCA1 HR1-SH3 (residues 330–545); assay: as above

Cdc42Δ7Q61L, sequence (P60953 1-184 Q61L): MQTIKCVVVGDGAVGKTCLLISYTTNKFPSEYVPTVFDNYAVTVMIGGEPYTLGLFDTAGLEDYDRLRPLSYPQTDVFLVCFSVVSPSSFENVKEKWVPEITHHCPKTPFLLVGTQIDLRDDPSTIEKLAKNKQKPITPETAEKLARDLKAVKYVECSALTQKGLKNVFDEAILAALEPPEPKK

B1
Kd [1]: 5 µM

B2
Kd [2]: > 1000 nM

B3
Kd [1]: 5.39 µM | Kd [3]: 6.05 µM

B4
Kd [3]: 0.037 µM

B5
Kd [1]: 10 µM

B6
Kd [4]: 4.6 µM

— article PMC4919469, “Investigation of the Interaction between Cdc42 and Its Effector TOCA1” (The Journal of Biological Chemistry, 2016)
